Kd data for 3 substances are collected here from article PMC7706699.

What is called Kd is the free concentration of one partner at which half of the binding sites on the other are occupied at equilibrium, for simple one-to-one binding. High values mean weaker binding, low ones tighter binding.

For the test, the target named is hFip1 (residues 137–243) S159C/C189S/C216S mutant, FAM-labeled (human) (UniProt Q6UN15). Description: fluorescence polarisation.
In turn, “human CPSF30 ZF2–C terminus (residues 62–244), wild type (from UniProt O95639-2 62-244) (domain or fragment)” had a Kd of 11.4 nM. The substance “human CPSF30 (residues 62–244) Y127A mutant (from UniProt O95639-2 62-244) (domain or fragment)” yielded a Kd of 22 nM. Compared with the last substance, the Kd is about 1.9-fold higher. Then “human CPSF30 (residues 62–244) Y151A mutant (from UniProt O95639-2 62-244) (domain or fragment)”, with 5.4 nM.
